According to US20250002577A1 (ONCORESPONSE, published 2025):

Experiments:
human LILRB2 on cells [1] = target: T1, human LILRB2 on cells (human, UniProt Q8N423 22-597); test: flow cytometry, AF647-labelled antibody on HEK293T cells stably expressing human LILRB2
T1 construct: whole, on cells; also called hLILRB2; LILRB2-HEK293T
Procedure: While LILRB2 expression is mostly restricted to myeloid cells, LILRB1 has a broader expression on immune cell subsets, including B cells, T cells and NK cells.
Frozen cells were removed from storage in vapor phase liquid nitrogen and thawed by gentle swirling in a water bath at 37° C., then resuspended in DMEM media with 10% FBS. Cells were placed in a 15 mL conical tube and centrifuged at 300×g for 5 min, then supernatant was removed. Cells were resuspended in DMEM+10% FBS at a cell density of 2×10⁵ cells/mL in a T75 flask for culturing, and incubated at 37° C., 5% CO₂ for 3 days before passaging. Cells were passaged when the cell density reached 1×10⁶ cell/mL. On the day of the assay, cells were centrifuged, then supernatant was removed. Cells were resuspended in Blocking Buffer B (FACS Buffer containing 10% FBS and 0.5 mg/mL human IgG1 (Athens Research, No. 16-16-090707-1M)+0.05% NaN₃, 5% (w/v)) in a 15 mL conical tube, then incubated at 4° C. for 30 min. […] Cells were incubated with antibodies at 4° C. for 1 h. Cells were washed twice in FACS Buffer (PBS containing 2 mM EDTA+1% FBS+0.05% NaN₃) and then stained with for 10 min with Zombie Violet™ fixable viability dye (BioLegend, No. 423114) at RT, washed with FACS Buffer and resuspend in 75 μL of FACS Buffer for acquisition on a BD FACSymphony™ or BD FACSCanto™ II flow cytometer (BD Biosciences), as described in Example 6.

human LILRB2 on cells [2] = target: T1, human LILRB2 on cells; test: flow cytometry, LILRB2-HEK293T cells, AF647-labelled antibody
Summary of the method: (§1)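 Cells were blocked 30 min at 4° C in FACS buffer with 10% FBS and 0.5 mg/mL human IgG1. AF647-labelled antibodies were then bound for 1 h at 4° C. After Zombie Violet viability staining, binding was read by flow cytometry.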

[3] = target: T2, recombinant human LILRB2-His (human, UniProt Q8N423 22-461, limits assumed); test: MSD ELISA, coated antigen, purified IgG1
T2 construct: Bought protein; also called LILRB2 protein

[4] = target: T3, recombinant human LILRB1-His (human, UniProt Q8NHL6 24-458); test: MSD ELISA, coated antigen, purified IgG1
T3 construct: Bought protein; also called LILRB1 protein
T3 sequence (Q8NHL6 24-458 limits assumed): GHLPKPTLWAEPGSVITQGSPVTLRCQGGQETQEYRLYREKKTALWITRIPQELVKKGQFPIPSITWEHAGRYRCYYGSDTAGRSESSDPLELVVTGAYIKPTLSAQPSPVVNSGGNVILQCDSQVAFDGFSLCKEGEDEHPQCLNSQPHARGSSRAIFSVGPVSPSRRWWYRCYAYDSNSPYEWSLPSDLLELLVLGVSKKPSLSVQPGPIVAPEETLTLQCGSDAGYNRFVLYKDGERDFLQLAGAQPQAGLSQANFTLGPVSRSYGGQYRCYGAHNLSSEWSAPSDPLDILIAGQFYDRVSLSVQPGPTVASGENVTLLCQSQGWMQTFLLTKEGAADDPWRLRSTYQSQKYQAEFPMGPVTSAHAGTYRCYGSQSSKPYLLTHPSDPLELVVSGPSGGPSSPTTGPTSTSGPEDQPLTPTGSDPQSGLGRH

[5] = target: T4, recombinant cynomolgus LILRB1 (cynomolgus); test: MSD ELISA, coated antigen, purified IgG1
T4 construct: Bought protein

human LILRB1 on cells [6] = target: T5, human LILRB1 on cells (human, UniProt Q8NHL6 24-650); test: flow cytometry, 721.221 cells, AF647-labelled antibody
T5 construct: whole, on cells; also called hLILRB1; LILRB1-expressing 721.221 cells
T5 sequence (Q8NHL6 24-650): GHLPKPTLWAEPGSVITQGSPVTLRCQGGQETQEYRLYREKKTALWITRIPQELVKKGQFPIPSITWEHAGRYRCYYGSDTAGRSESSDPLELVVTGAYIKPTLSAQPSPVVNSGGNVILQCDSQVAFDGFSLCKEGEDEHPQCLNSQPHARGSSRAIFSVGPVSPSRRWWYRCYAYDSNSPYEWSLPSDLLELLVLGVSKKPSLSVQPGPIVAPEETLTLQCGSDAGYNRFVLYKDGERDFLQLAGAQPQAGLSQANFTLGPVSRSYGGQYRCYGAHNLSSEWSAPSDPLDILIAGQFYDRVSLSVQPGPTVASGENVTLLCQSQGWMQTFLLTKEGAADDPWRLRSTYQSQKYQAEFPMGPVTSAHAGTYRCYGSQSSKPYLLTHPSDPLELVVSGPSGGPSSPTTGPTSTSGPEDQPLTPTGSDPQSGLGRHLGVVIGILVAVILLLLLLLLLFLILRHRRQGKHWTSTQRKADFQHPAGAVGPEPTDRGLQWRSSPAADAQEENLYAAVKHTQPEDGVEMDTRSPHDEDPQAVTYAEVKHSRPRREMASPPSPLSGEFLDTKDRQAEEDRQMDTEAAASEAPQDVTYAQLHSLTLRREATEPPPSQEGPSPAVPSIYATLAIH
Summary of the method: as §1

[7] = target: T6, human LILRA2 on HEK293-6E cells (human, UniProt Q8N149 24-483); test: flow cytometry, HEK293-6E transfectants
T6 construct: whole, on cells; also called hLILRA2
T6 sequence (Q8N149 24-483): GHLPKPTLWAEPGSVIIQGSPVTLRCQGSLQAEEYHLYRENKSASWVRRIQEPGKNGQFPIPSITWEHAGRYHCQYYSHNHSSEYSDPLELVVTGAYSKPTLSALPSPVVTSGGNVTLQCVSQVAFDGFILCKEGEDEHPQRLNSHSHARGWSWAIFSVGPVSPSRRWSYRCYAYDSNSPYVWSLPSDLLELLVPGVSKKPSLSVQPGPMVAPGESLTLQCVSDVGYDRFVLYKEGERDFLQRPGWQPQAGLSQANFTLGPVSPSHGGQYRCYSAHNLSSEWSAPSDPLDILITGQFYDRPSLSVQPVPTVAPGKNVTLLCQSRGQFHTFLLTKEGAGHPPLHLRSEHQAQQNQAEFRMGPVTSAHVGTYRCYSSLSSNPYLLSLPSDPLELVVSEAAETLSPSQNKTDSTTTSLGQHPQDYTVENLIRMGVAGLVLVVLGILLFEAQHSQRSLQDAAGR
Summary of the method: (§2)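 Antibody binding measured by flow cytometry on HEK293-6E cells transiently transfected with individual human LILRB (1–5) or LILRA (1, 2, 4, 5, 6) plasmids. Antibodies tested at 1 μg/mL.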

[8] = target: T7, human LILRB3 on HEK293-6E cells (human, UniProt O75022 24-631); test: flow cytometry, HEK293-6E transfectants
T7 construct: whole, on cells; also called hLILRB3
T7 sequence (O75022 24-631): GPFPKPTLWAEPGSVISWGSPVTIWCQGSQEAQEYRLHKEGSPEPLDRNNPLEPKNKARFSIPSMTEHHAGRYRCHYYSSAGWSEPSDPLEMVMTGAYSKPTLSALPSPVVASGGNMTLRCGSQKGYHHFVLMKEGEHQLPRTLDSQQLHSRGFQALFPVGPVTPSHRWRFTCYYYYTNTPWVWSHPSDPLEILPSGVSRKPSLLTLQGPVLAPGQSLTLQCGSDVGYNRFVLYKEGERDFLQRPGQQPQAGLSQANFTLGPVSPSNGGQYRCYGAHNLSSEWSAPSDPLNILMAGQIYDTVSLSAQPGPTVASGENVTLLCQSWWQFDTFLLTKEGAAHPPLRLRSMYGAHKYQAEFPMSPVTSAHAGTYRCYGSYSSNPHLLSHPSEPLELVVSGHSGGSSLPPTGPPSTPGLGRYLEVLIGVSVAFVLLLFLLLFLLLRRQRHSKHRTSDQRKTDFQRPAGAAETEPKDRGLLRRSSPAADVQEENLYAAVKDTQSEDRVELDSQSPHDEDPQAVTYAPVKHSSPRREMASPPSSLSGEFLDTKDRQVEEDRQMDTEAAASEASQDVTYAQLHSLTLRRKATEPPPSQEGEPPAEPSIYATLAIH
Summary of the method: as §2

[9] = target: T8, human LILRB4 on HEK293-6E cells (human, UniProt Q8NHJ6 22-448); test: flow cytometry, HEK293-6E transfectants
T8 construct: whole, on cells; also called hLILRB4
Summary of the method: as §2

[10] = target: T9, human LILRA4 on HEK293-6E cells (human, UniProt P59901 24-499); test: flow cytometry, HEK293-6E transfectants
T9 construct: whole, on cells; also called hLILRA4
T9 sequence (P59901 24-499): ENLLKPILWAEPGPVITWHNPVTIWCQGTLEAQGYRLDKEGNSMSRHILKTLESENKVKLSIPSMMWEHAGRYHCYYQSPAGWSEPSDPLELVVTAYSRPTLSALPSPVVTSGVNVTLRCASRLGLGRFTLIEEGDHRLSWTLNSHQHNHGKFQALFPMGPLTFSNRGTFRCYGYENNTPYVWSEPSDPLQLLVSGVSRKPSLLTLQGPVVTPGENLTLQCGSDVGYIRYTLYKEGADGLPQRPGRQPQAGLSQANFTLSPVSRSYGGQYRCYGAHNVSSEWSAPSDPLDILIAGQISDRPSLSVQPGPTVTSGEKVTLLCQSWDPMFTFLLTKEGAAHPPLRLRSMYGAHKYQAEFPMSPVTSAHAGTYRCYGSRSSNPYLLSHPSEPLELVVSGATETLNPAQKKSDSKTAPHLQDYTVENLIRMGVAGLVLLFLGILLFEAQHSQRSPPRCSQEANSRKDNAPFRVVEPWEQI
Summary of the method: as §2

[11] = target: T10, human LILRA1 on HEK293-6E cells (human, UniProt O75019 17-489); test: flow cytometry, HEK293-6E transfectants
T10 construct: whole, on cells; also called hLILRA1
T10 sequence (O75019 17-489): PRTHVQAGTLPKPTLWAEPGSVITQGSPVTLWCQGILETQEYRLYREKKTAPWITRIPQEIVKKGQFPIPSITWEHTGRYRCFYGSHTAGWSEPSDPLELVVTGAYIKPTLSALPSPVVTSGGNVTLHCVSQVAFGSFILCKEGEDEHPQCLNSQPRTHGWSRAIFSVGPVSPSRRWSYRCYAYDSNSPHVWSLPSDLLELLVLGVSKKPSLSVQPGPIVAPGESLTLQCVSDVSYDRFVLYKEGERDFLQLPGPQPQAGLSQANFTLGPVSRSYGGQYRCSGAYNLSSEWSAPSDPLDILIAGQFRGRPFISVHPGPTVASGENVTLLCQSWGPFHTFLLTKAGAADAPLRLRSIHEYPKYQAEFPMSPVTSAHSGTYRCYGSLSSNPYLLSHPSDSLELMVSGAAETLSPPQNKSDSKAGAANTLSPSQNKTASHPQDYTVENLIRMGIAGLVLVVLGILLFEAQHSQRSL
Summary of the method: as §2

[12] = target: T11, human LILRA6 on HEK293-6E cells (human, UniProt Q6PI73 24-481); test: flow cytometry, HEK293-6E transfectants
T11 construct: whole, on cells; also called hLILRA6
T11 sequence (Q6PI73 24-481): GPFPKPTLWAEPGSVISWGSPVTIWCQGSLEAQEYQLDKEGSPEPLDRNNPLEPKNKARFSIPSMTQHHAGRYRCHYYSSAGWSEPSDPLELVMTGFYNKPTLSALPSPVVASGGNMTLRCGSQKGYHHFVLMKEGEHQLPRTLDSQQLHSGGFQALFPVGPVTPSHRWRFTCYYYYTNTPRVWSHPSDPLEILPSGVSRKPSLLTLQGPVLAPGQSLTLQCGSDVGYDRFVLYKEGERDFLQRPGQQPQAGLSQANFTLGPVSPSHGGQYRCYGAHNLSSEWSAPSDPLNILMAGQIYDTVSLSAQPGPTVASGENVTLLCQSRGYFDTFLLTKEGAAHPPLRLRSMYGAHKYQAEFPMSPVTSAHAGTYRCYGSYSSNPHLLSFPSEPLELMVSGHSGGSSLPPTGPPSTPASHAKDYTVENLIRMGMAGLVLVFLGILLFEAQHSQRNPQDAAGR
Summary of the method: as §2

[13] = target: T12, human LILRB5 on HEK293-6E cells (human, UniProt O75023 24-590); test: flow cytometry, HEK293-6E transfectants
T12 construct: whole, on cells; also called hLILRB5
T12 sequence (O75023 24-590): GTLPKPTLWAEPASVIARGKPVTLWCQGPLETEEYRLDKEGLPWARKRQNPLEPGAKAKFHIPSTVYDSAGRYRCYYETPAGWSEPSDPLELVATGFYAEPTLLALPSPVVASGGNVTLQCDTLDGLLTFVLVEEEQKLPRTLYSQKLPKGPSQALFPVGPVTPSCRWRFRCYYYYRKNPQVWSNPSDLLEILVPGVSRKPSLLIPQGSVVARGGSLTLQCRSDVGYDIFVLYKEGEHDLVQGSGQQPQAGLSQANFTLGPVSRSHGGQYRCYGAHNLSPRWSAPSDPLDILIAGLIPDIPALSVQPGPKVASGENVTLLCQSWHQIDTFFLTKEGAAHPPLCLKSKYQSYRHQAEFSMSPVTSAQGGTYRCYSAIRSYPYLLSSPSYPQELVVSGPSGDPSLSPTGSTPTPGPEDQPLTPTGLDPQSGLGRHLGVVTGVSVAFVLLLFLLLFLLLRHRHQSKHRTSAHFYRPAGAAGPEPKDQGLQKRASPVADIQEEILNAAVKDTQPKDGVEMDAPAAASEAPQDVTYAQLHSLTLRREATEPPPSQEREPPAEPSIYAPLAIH
Summary of the method: as §2

human LILRB1 on cells [14] = target: T5, human LILRB1 on cells; test: flow cytometry, HEK293-6E transfectants
Summary of the method: as §2

human LILRB2 on cells [15] = target: T1, human LILRB2 on cells; test: flow cytometry, HEK293-6E transfectants
Summary of the method: as §2

[16] = target: T13, human LILRA5 on HEK293-6E cells (human, UniProt A6NI73 42-299); test: flow cytometry, HEK293-6E transfectants
T13 construct: whole, on cells; also called hLILRA5
T13 sequence (A6NI73 42-299): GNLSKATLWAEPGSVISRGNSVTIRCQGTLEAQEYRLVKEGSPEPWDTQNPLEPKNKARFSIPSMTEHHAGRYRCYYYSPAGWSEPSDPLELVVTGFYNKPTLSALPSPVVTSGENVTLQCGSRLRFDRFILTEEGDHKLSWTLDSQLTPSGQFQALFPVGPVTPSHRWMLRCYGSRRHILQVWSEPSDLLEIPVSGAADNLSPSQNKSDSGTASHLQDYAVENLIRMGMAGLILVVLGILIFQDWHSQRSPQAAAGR
Summary of the method: as §2

human LILRB1 on cells [17] = target: T5, human LILRB1 on cells; test: flow cytometry, AF647-labelled antibody at 10 µg/mL on human PBMC, gate: CD56dim CD16+ NK cells (LILRB1-expressing subset per paragraph 345)
Procedure: To further characterize the binding of LILRB2/1 antibodies to LILRB1 expressing immune cell subsets (namely, B, T, and NK cells), binding assays were performed with primary human PBMCs. Single cell suspensions of peripheral blood mononuclear cells (PBMCs) from healthy donors were seeded at 0.5 million per well in 96-well plates (Thermo Fisher, No. 249946). PBMCs were blocked with 0.5 mg/mL of human IgG1 myeloma plasma (Athens Research, No. 16-16-090707-1M) in FACS Buffer (PBS containing 2% FBS, 2 mM EDTA and 0.05% NaN₃) for 45 min to 1 h at 4° C. The immune cell phenotyping antibodies and indicated AlexaFluor647-labeled test antibodies were then added to the cells and incubated for 45 min to 1 h at 4° C.
Cells were washed 1× with PBS and stained with the Zombie Violet™ fixable viability dye for 15 min at RT for live cell discrimination. Cells were washed 1× with FACS Buffer, fixed, and acquired on a FACS Symphony cytometer (BD Biosciences). Data analysis was performed using the FlowJo software (v10.8.1). […]

T1 sequence (Q8N423 22-597): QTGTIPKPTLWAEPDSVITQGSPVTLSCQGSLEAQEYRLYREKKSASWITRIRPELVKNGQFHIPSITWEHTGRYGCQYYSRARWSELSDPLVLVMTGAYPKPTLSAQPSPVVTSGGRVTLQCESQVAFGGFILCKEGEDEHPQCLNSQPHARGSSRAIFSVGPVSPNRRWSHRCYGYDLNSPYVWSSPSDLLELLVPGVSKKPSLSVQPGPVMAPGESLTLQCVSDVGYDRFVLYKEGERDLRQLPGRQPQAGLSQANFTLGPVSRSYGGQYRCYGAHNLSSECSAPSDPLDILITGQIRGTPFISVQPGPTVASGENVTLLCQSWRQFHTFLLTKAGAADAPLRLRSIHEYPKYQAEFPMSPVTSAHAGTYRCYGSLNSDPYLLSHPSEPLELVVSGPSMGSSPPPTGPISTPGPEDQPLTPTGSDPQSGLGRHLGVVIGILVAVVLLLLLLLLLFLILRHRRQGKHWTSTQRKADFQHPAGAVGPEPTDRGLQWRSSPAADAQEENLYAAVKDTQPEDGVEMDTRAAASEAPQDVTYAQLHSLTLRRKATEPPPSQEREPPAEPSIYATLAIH

B1: Comp 2 (anti-LILRB2 antibody) (antibody, human IgG1, kappa, V domains shown)
VH: QIQLVQSGPELKKPGETVKISCKASGYTFTNYGMNWVKQAPGKGLKWMGWINTYIGEPIYADDFKGRFAFSLETSASTAYLQINNLKNEDMATYFCARRSDYDGYAMDYWGQGTSVTVSS
VL: DIVMSQSPSSLAVSVGERVTMSCKSSQSLLYSGNQKNYLAWYQQKPGQSPKLLIYWASTRESGVPDRFTGSGSGTDFTLTISSVKAEDLAVYYCQQHDSYPTFGGGSRLEIKR
EC50 (read off the curve) (human LILRB2 on cells [1]): ~600 pM

B2: B21H1-14 (antibody, human IgG1, kappa)
heavy: not shown
light: DVVMTQSPSTVSASVGDRVTLTCQASGNIYSFLAWYQQKPGQPPKLLIYTASNLETGVPDRFSGSGSGTDYTLTISSLQADDFATYYCLGGLYSSDVSYAFGQGTKVEIKRTVAAPSVFIFPPSDEQLKSGTASVVCLLNNFYPREAKVQWKVDNALQSGNSQESVTEQDSKDSTYSLSSTLTLSKADYEKHKVYACEVTHQGLSSPVTKSFNRGEC
notes: humanized IgG1/kappa, VH1+VL4
EC50 (human LILRB2 on cells [2]): 0.0011 µg/mL
EC50 [3]: 0.0187 µg/mL
EC50 [4]: 0.00593 µg/mL
EC50 [5]: 0.45 µg/mL
EC50 (human LILRB1 on cells [6]): 0.0552 µg/mL
MFI [7]: 28.6 MFI
binding result [7]: no binding (tested: 1 µg/mL)
MFI [8]: 104 MFI
binding result [8]: no binding (tested: 1 µg/mL)
MFI [9]: 33.5 MFI
binding result [9]: no binding (tested: 1 µg/mL)
MFI [10]: 140 MFI
binding result [10]: no binding (tested: 1 µg/mL)
MFI [11]: 249 MFI
binding result [11]: no binding (tested: 1 µg/mL)
MFI [12]: 151 MFI
binding result [12]: no binding (tested: 1 µg/mL)
MFI [13]: 93.3 MFI
binding result [13]: no binding (tested: 1 µg/mL)
MFI (human LILRB1 on cells [14]): 988 MFI
MFI (human LILRB2 on cells [15]): 5760 MFI
MFI [16]: 78.3 MFI
binding result [16]: no binding (tested: 1 µg/mL)

B3: Comp 1 (anti-LILRB1 antibody) (antibody, human IgG1, kappa, V domains shown)
VH: QVQLKESGPGLVAPSQSLSITCTVSGFSLTNYGVSWVRQPPGKGLEWLGIIWGDGSTNYHSALISRLSISKDNSKSQVFLKLNSLQADDTATYYCAKPNWDTYAMDFWGQGTSVTVSS
VL: DIQMTQTTSSLSASLGDRVTISCRASQDISNFLNWYQQKPDGTVKLLIYCTSKLHSGVPSRFSGSGSETDYSLTISNLEQEDIATYFCQQGNTLPPTFGGGTKLEIIR
binding result (human LILRB1 on cells [17]): binds

B4: Comp 3 (antibody, human IgG1, kappa, N297G, V domains shown)
VH: QVQLVQSGAEVKKPGASVKVSCKASGYTFTDYYINWVRQAPGQGLEWMGNVNPNDGGTTYNQKFKGRVTMTTDTSTSTAYMELRSLRSDDTAVYYCARREIYFYGTIYYYAMDYWGQGTLVTVSS
VL: DIQLTQSPSFLSASVGDRVTITCRASESVDYYGNSFMYWYQQKPGKAPKLLIYFASNLESGVPSRFSGSGSGTEFTLTISSLQPEDFATYYCQQNNEDPWTFGGGTKVEIKR
notes: The text says 'a LILRB2/1 antibody (Comp 3); also called comparator LILRB2/1 antibody
binding result (human LILRB1 on cells [17]): binds
